Target: Human CD137 ECD (human)
Assay: single mutant vs template dBBDu183H

Sequence of Human CD137 ECD (human) (chain, as listed by the source limits assumed): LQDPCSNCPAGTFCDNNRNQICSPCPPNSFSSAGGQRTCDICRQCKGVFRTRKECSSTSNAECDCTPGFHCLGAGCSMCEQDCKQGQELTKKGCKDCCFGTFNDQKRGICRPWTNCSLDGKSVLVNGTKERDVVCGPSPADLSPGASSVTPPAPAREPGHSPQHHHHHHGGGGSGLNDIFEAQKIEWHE

Binder | fold change of affinity
H183/L072 VH A54P (antibody, name in Kabat numbering, V domains shown) VH: QVQLVESGGGLVQPGRSLRLSCAASGFTFSNAWMHWVRQAPGKGLEWVAQIKDKGNPYAAYYAPSVKGRFTISRDDSKNSIYLQMNSLKTEDTAVYYCHYVHYASASTVLPAFGVDAWGQGTTVTVSS VL: DIVMTQSPLSLPVTPGEPASISCQASQELVHMNRNTYLHWYQQKPGQAPRLLIYKVSNRFPGVPDRFSGSGSGTDFTLKISRVEAEDVGVYYCAQGTSVPFTFGQGTKLEIK | 0 fold
H183/L072 VH K52V (antibody, name in Kabat numbering, V domains shown) VH: QVQLVESGGGLVQPGRSLRLSCAASGFTFSNAWMHWVRQAPGKGLEWVAQIVDKGNAYAAYYAPSVKGRFTISRDDSKNSIYLQMNSLKTEDTAVYYCHYVHYASASTVLPAFGVDAWGQGTTVTVSS VL: DIVMTQSPLSLPVTPGEPASISCQASQELVHMNRNTYLHWYQQKPGQAPRLLIYKVSNRFPGVPDRFSGSGSGTDFTLKISRVEAEDVGVYYCAQGTSVPFTFGQGTKLEIK | 0 fold
H183/L072 VH D52aG (antibody, name in Kabat numbering, V domains shown) VH: QVQLVESGGGLVQPGRSLRLSCAASGFTFSNAWMHWVRQAPGKGLEWVAQIKGKGNAYAAYYAPSVKGRFTISRDDSKNSIYLQMNSLKTEDTAVYYCHYVHYASASTVLPAFGVDAWGQGTTVTVSS VL: DIVMTQSPLSLPVTPGEPASISCQASQELVHMNRNTYLHWYQQKPGQAPRLLIYKVSNRFPGVPDRFSGSGSGTDFTLKISRVEAEDVGVYYCAQGTSVPFTFGQGTKLEIK | 0 fold
H183/L072 VH F29N (antibody, name in Kabat numbering, V domains shown) VH: QVQLVESGGGLVQPGRSLRLSCAASGFTNSNAWMHWVRQAPGKGLEWVAQIKDKGNAYAAYYAPSVKGRFTISRDDSKNSIYLQMNSLKTEDTAVYYCHYVHYASASTVLPAFGVDAWGQGTTVTVSS VL: DIVMTQSPLSLPVTPGEPASISCQASQELVHMNRNTYLHWYQQKPGQAPRLLIYKVSNRFPGVPDRFSGSGSGTDFTLKISRVEAEDVGVYYCAQGTSVPFTFGQGTKLEIK | 0 fold
H183/L072 VH D52aV (antibody, name in Kabat numbering, V domains shown) VH: QVQLVESGGGLVQPGRSLRLSCAASGFTFSNAWMHWVRQAPGKGLEWVAQIKVKGNAYAAYYAPSVKGRFTISRDDSKNSIYLQMNSLKTEDTAVYYCHYVHYASASTVLPAFGVDAWGQGTTVTVSS VL: DIVMTQSPLSLPVTPGEPASISCQASQELVHMNRNTYLHWYQQKPGQAPRLLIYKVSNRFPGVPDRFSGSGSGTDFTLKISRVEAEDVGVYYCAQGTSVPFTFGQGTKLEIK | 0 fold
H183/L072 VH K52G (antibody, name in Kabat numbering, V domains shown) VH: QVQLVESGGGLVQPGRSLRLSCAASGFTFSNAWMHWVRQAPGKGLEWVAQIGDKGNAYAAYYAPSVKGRFTISRDDSKNSIYLQMNSLKTEDTAVYYCHYVHYASASTVLPAFGVDAWGQGTTVTVSS VL: DIVMTQSPLSLPVTPGEPASISCQASQELVHMNRNTYLHWYQQKPGQAPRLLIYKVSNRFPGVPDRFSGSGSGTDFTLKISRVEAEDVGVYYCAQGTSVPFTFGQGTKLEIK | 0 fold
H183/L072 VH H35G (antibody, name in Kabat numbering, V domains shown) VH: QVQLVESGGGLVQPGRSLRLSCAASGFTFSNAWMGWVRQAPGKGLEWVAQIKDKGNAYAAYYAPSVKGRFTISRDDSKNSIYLQMNSLKTEDTAVYYCHYVHYASASTVLPAFGVDAWGQGTTVTVSS VL: DIVMTQSPLSLPVTPGEPASISCQASQELVHMNRNTYLHWYQQKPGQAPRLLIYKVSNRFPGVPDRFSGSGSGTDFTLKISRVEAEDVGVYYCAQGTSVPFTFGQGTKLEIK | 0 fold
H183/L072 VH G26V (antibody, name in Kabat numbering, V domains shown) VH: QVQLVESGGGLVQPGRSLRLSCAASVFTFSNAWMHWVRQAPGKGLEWVAQIKDKGNAYAAYYAPSVKGRFTISRDDSKNSIYLQMNSLKTEDTAVYYCHYVHYASASTVLPAFGVDAWGQGTTVTVSS VL: DIVMTQSPLSLPVTPGEPASISCQASQELVHMNRNTYLHWYQQKPGQAPRLLIYKVSNRFPGVPDRFSGSGSGTDFTLKISRVEAEDVGVYYCAQGTSVPFTFGQGTKLEIK | 0 fold
H183/L072 VH F29G (antibody, name in Kabat numbering, V domains shown) VH: QVQLVESGGGLVQPGRSLRLSCAASGFTGSNAWMHWVRQAPGKGLEWVAQIKDKGNAYAAYYAPSVKGRFTISRDDSKNSIYLQMNSLKTEDTAVYYCHYVHYASASTVLPAFGVDAWGQGTTVTVSS VL: DIVMTQSPLSLPVTPGEPASISCQASQELVHMNRNTYLHWYQQKPGQAPRLLIYKVSNRFPGVPDRFSGSGSGTDFTLKISRVEAEDVGVYYCAQGTSVPFTFGQGTKLEIK | 0 fold
H183/L072 VH D52aN (antibody, name in Kabat numbering, V domains shown) VH: QVQLVESGGGLVQPGRSLRLSCAASGFTFSNAWMHWVRQAPGKGLEWVAQIKNKGNAYAAYYAPSVKGRFTISRDDSKNSIYLQMNSLKTEDTAVYYCHYVHYASASTVLPAFGVDAWGQGTTVTVSS VL: DIVMTQSPLSLPVTPGEPASISCQASQELVHMNRNTYLHWYQQKPGQAPRLLIYKVSNRFPGVPDRFSGSGSGTDFTLKISRVEAEDVGVYYCAQGTSVPFTFGQGTKLEIK | 0 fold

Further lines, results first:

fold change of affinity | Binder
0 fold | H183/L072 VH Y55P (antibody, name in Kabat numbering, V domains shown) VH: QVQLVESGGGLVQPGRSLRLSCAASGFTFSNAWMHWVRQAPGKGLEWVAQIKDKGNAPAAYYAPSVKGRFTISRDDSKNSIYLQMNSLKTEDTAVYYCHYVHYASASTVLPAFGVDAWGQGTTVTVSS VL: DIVMTQSPLSLPVTPGEPASISCQASQELVHMNRNTYLHWYQQKPGQAPRLLIYKVSNRFPGVPDRFSGSGSGTDFTLKISRVEAEDVGVYYCAQGTSVPFTFGQGTKLEIK
0 fold | H183/L072 VH W33V (antibody, name in Kabat numbering, V domains shown) VH: QVQLVESGGGLVQPGRSLRLSCAASGFTFSNAVMHWVRQAPGKGLEWVAQIKDKGNAYAAYYAPSVKGRFTISRDDSKNSIYLQMNSLKTEDTAVYYCHYVHYASASTVLPAFGVDAWGQGTTVTVSS VL: DIVMTQSPLSLPVTPGEPASISCQASQELVHMNRNTYLHWYQQKPGQAPRLLIYKVSNRFPGVPDRFSGSGSGTDFTLKISRVEAEDVGVYYCAQGTSVPFTFGQGTKLEIK
0 fold | H183/L072 VH T28N (antibody, name in Kabat numbering, V domains shown) VH: QVQLVESGGGLVQPGRSLRLSCAASGFNFSNAWMHWVRQAPGKGLEWVAQIKDKGNAYAAYYAPSVKGRFTISRDDSKNSIYLQMNSLKTEDTAVYYCHYVHYASASTVLPAFGVDAWGQGTTVTVSS VL: DIVMTQSPLSLPVTPGEPASISCQASQELVHMNRNTYLHWYQQKPGQAPRLLIYKVSNRFPGVPDRFSGSGSGTDFTLKISRVEAEDVGVYYCAQGTSVPFTFGQGTKLEIK
0 fold | H183/L072 VH Q50G (antibody, name in Kabat numbering, V domains shown) VH: QVQLVESGGGLVQPGRSLRLSCAASGFTFSNAWMHWVRQAPGKGLEWVAGIKDKGNAYAAYYAPSVKGRFTISRDDSKNSIYLQMNSLKTEDTAVYYCHYVHYASASTVLPAFGVDAWGQGTTVTVSS VL: DIVMTQSPLSLPVTPGEPASISCQASQELVHMNRNTYLHWYQQKPGQAPRLLIYKVSNRFPGVPDRFSGSGSGTDFTLKISRVEAEDVGVYYCAQGTSVPFTFGQGTKLEIK
0 fold | H183/L072 VH M34G (antibody, name in Kabat numbering, V domains shown) VH: QVQLVESGGGLVQPGRSLRLSCAASGFTFSNAWGHWVRQAPGKGLEWVAQIKDKGNAYAAYYAPSVKGRFTISRDDSKNSIYLQMNSLKTEDTAVYYCHYVHYASASTVLPAFGVDAWGQGTTVTVSS VL: DIVMTQSPLSLPVTPGEPASISCQASQELVHMNRNTYLHWYQQKPGQAPRLLIYKVSNRFPGVPDRFSGSGSGTDFTLKISRVEAEDVGVYYCAQGTSVPFTFGQGTKLEIK
0 fold | H183/L072 VH N53V (antibody, name in Kabat numbering, V domains shown) VH: QVQLVESGGGLVQPGRSLRLSCAASGFTFSNAWMHWVRQAPGKGLEWVAQIKDKGVAYAAYYAPSVKGRFTISRDDSKNSIYLQMNSLKTEDTAVYYCHYVHYASASTVLPAFGVDAWGQGTTVTVSS VL: DIVMTQSPLSLPVTPGEPASISCQASQELVHMNRNTYLHWYQQKPGQAPRLLIYKVSNRFPGVPDRFSGSGSGTDFTLKISRVEAEDVGVYYCAQGTSVPFTFGQGTKLEIK
0 fold | H183/L072 VH N53G (antibody, name in Kabat numbering, V domains shown) VH: QVQLVESGGGLVQPGRSLRLSCAASGFTFSNAWMHWVRQAPGKGLEWVAQIKDKGGAYAAYYAPSVKGRFTISRDDSKNSIYLQMNSLKTEDTAVYYCHYVHYASASTVLPAFGVDAWGQGTTVTVSS VL: DIVMTQSPLSLPVTPGEPASISCQASQELVHMNRNTYLHWYQQKPGQAPRLLIYKVSNRFPGVPDRFSGSGSGTDFTLKISRVEAEDVGVYYCAQGTSVPFTFGQGTKLEIK
0 fold | H183/L072 VH Y55V (antibody, name in Kabat numbering, V domains shown) VH: QVQLVESGGGLVQPGRSLRLSCAASGFTFSNAWMHWVRQAPGKGLEWVAQIKDKGNAVAAYYAPSVKGRFTISRDDSKNSIYLQMNSLKTEDTAVYYCHYVHYASASTVLPAFGVDAWGQGTTVTVSS VL: DIVMTQSPLSLPVTPGEPASISCQASQELVHMNRNTYLHWYQQKPGQAPRLLIYKVSNRFPGVPDRFSGSGSGTDFTLKISRVEAEDVGVYYCAQGTSVPFTFGQGTKLEIK
0 fold | H183/L072 VH M34N (antibody, name in Kabat numbering, V domains shown) VH: QVQLVESGGGLVQPGRSLRLSCAASGFTFSNAWNHWVRQAPGKGLEWVAQIKDKGNAYAAYYAPSVKGRFTISRDDSKNSIYLQMNSLKTEDTAVYYCHYVHYASASTVLPAFGVDAWGQGTTVTVSS VL: DIVMTQSPLSLPVTPGEPASISCQASQELVHMNRNTYLHWYQQKPGQAPRLLIYKVSNRFPGVPDRFSGSGSGTDFTLKISRVEAEDVGVYYCAQGTSVPFTFGQGTKLEIK
0 fold | H183/L072 VH W33N (antibody, name in Kabat numbering, V domains shown) VH: QVQLVESGGGLVQPGRSLRLSCAASGFTFSNANMHWVRQAPGKGLEWVAQIKDKGNAYAAYYAPSVKGRFTISRDDSKNSIYLQMNSLKTEDTAVYYCHYVHYASASTVLPAFGVDAWGQGTTVTVSS VL: DIVMTQSPLSLPVTPGEPASISCQASQELVHMNRNTYLHWYQQKPGQAPRLLIYKVSNRFPGVPDRFSGSGSGTDFTLKISRVEAEDVGVYYCAQGTSVPFTFGQGTKLEIK
0 fold | H183/L072 VH W33G (antibody, name in Kabat numbering, V domains shown) VH: QVQLVESGGGLVQPGRSLRLSCAASGFTFSNAGMHWVRQAPGKGLEWVAQIKDKGNAYAAYYAPSVKGRFTISRDDSKNSIYLQMNSLKTEDTAVYYCHYVHYASASTVLPAFGVDAWGQGTTVTVSS VL: DIVMTQSPLSLPVTPGEPASISCQASQELVHMNRNTYLHWYQQKPGQAPRLLIYKVSNRFPGVPDRFSGSGSGTDFTLKISRVEAEDVGVYYCAQGTSVPFTFGQGTKLEIK
